Assay results published in US20070098721A1.

Key:
Assay in all cases: dot blot, antigen dilution series on nitrocellulose
[1] = biological target: Aβ(1-42) oligomers B (human amyloid β(1-42) oligomers having molecular weights of 38 kDa and 48 kDa; preparation of example 6b) (human) (UniProt P05067)
[2] = biological target: HFIP-treated Aβ(1-42) monomer of example 1a (human amyloid β(1-42) protein) (human)
[3] = biological target: Aβ(1-42) fibril preparation of example 27 (human) (UniProt P05067)
Sequence of Aβ(1-42) fibril preparation of example 27 (human) (P05067 672-713 limits assumed): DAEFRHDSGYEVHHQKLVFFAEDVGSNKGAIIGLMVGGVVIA

Sequence of HFIP-treated Aβ(1-42) monomer of example 1a (human amyloid β(1-42) protein) (human) (peptide, as listed by the source): as the sequence (P05067 672-713 limits assumed) above
Sequence of Aβ(1-42) oligomers B (human amyloid β(1-42) oligomers having molecular weights of 38 kDa and 48 kDa; preparation of example 6b) (human) (P05067 672-713 limits assumed): as above

Q: Which minimum amount of antigen visible (detection limit) [1] does the source give for monoclonal antibody 6E10 (Signet) here?
A: 0.1 pmol

Q: What about the minimum amount of antigen visible (detection limit) [2] of the same substance?
A: 0.1 pmol

Q: And the minimum amount of antigen visible (detection limit) [3]?
A: 1 pmol
